The text below walks through data of patent US20060286142A1.

The assay deals with biotinylated alkaline phosphatase. The assay is described as follows: SPR (Spreeta) refractive index response to 2 ug/ml b-AP on gold channels saturated with GBP-SA then GBP, after exposure to foulants (fibrinogen, human serum albumin, plasma, platelets).

For the substance “His6 tagged fusion protein streptavidin-GBP (from UniProt P22629 13-133)”, the relative response to b-AP (% of GBP-SA control channel) was in the range of 80 to 100%.
